Laboratory results published in paper PMC10530651, “Mechanisms of Regulation of the CHRDL1 Gene by the TWIST2 and ADD1/SREBP1c Transcription Factors”.

Experiments:
TWIST2 [1] = target: T1, TWIST2 (Homo sapiens, UniProt Q8WVJ9 1-160); experiment: competition; vs labeled probe #5; EMSA: 20 mM HEPES pH 7.9, 60 mM KCl, 1 mM MgCl2, 0.5 mM DTT, 10% glycerol, 10 µL with 1-3 µL TnT lysate; competitor at least 50x molar excess; 6% native gel, 0.5X TBE, 4 °C; binding temperature not stated; details: protein: ivt; tags: N-terminal Myc; chain copies: 2; blunt
T1 sequence: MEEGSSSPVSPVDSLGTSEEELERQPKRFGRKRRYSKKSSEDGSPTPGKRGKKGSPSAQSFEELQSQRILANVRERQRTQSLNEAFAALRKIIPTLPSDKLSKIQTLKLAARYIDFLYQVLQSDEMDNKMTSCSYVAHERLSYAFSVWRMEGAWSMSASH

TWIST1 [2] = target: T2, TWIST1 (Homo sapiens, UniProt Q15672 1-202); experiment: as above; details: protein: ivt; tags: Myc; chain copies: 2; blunt
TWIST1 [3] = target: T2, TWIST1; experiment: EMSA; EMSA: 20 mM HEPES pH 7.9, 60 mM KCl, 1 mM MgCl2, 0.5 mM DTT, 10% glycerol, 10 µL with 1-3 µL TnT lysate; competitor at least 50x molar excess; 6% native gel, 0.5X TBE, 4 °C; binding temperature not stated; details: protein: ivt; tags: Myc; chain copies: 2; label: 32P as probe; blunt
TWIST2 [4] = target: T1, TWIST2; experiment: EMSA; competition; EMSA: 20 mM HEPES pH 7.9, 60 mM KCl, 1 mM MgCl2, 0.5 mM DTT, 10% glycerol, 10 µL with 1-3 µL TnT lysate; competitor at least 50x molar excess; 6% native gel, 0.5X TBE, 4 °C; binding temperature not stated; details: protein: ivt; tags: N-terminal Myc; chain copies: 2; label: 32P as probe; blunt
ADD1/SREBP1c [5] = target: T3, ADD1/SREBP1c (rat, UniProt P56720-1 1-403); experiment: as above; details: protein: ivt; tags: C-terminal Myc/His; chain copies: 2; label: 32P as probe; blunt
T3 sequence: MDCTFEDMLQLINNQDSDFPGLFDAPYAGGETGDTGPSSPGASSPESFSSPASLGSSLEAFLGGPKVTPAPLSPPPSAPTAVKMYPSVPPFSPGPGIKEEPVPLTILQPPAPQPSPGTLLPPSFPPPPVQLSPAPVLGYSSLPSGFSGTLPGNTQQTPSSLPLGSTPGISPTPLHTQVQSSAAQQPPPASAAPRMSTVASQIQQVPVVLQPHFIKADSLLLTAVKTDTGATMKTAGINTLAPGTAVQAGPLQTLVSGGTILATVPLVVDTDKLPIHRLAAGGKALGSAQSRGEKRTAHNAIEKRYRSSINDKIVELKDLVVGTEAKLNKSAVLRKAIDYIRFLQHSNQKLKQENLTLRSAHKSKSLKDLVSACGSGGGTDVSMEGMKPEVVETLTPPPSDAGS

TWIST2 [6] = target: T1, TWIST2; experiment: EMSA; EMSA: 20 mM HEPES pH 7.9, 60 mM KCl, 1 mM MgCl2, 0.5 mM DTT, 10% glycerol, 10 µL with 1-3 µL TnT lysate; competitor at least 50x molar excess; 6% native gel, 0.5X TBE, 4 °C; binding temperature not stated; details: protein: ivt; tags: N-terminal Myc; chain copies: 2; label: 32P as probe; blunt
ADD1/SREBP1c [7] = target: T3, ADD1/SREBP1c; experiment: as above; details: protein: ivt; tags: C-terminal Myc/His; chain copies: 2; label: 32P as probe; blunt
TWIST2 [8] = target: T1, TWIST2; experiment: competition; vs labeled CH2700EA; EMSA: 20 mM HEPES pH 7.9, 60 mM KCl, 1 mM MgCl2, 0.5 mM DTT, 10% glycerol, 10 µL with 1-3 µL TnT lysate; competitor at least 50x molar excess; 6% native gel, 0.5X TBE, 4 °C; binding temperature not stated; details: protein: ivt; tags: N-terminal Myc; chain copies: 2; blunt
ADD1/SREBP1c [9] = target: T3, ADD1/SREBP1c; experiment: as above; details: protein: ivt; tags: C-terminal Myc/His; chain copies: 2; blunt

B1: SP1 oligo (dsDNA)
DNA 1: ATTCGATCGGGGCGGGGCGAGC
DNA 2: GCTCGCCCCGCCCCGATCGAAT
B1: no binding (TWIST2 [1]); no binding (TWIST1 [2]).

B2: CH2600TWI (dsDNA)
DNA 1: TATATACACAGGCAAATGAGTGCATATAAA
DNA 2: TTTATATGCACTCATTTGCCTGTGTATATA
B2: no binding (TWIST1 [3]); no binding (TWIST2 [4]); no binding (ADD1/SREBP1c [5]).

B3: CH2700EA (dsDNA)
DNA 1: TGGTGGTGGTCACATGAATATACACATGCGATAAAATT
DNA 2: AATTTTATCGCATGTGTATATTCATGTGACCACCACCA
B3: binds (TWIST2 [6]); binds (ADD1/SREBP1c [7]).

B4: CH2700EMAW (dsDNA)
DNA 1: TGGTGGTGGTCGCACGAATATACACATGCGATAAAATT
DNA 2: AATTTTATCGCATGTGTATATTCGTGCGACCACCACCA
B4: binds (TWIST2 [8]); binds (ADD1/SREBP1c [9]).

B5: CH2700EWAM (dsDNA)
DNA 1: TGGTGGTGGTCACATGAATATACGCACGCGATAAAATT
DNA 2: AATTTTATCGCGTGCGTATATTCATGTGACCACCACCA
B5: binds (ADD1/SREBP1c [9]).
